The values that follow come from patent US4944948A, “EGF/Liposome gel composition and method” (Liposome Technology, Inc., priority 1989, dated 1990).

For series [1] the following is noted: for % Lost (of total dose administered): from first order rate constants. The method, then:
The amount of radioactivity remaining in the injected eye was measured for up to 96 hours after injection (until at least 90% of the initial radioactivity had disappeared). An external NaI crystal detector/ratemeter (The Nucleus Model L) was placed directly over the eye and radioactivity measured for 2 minutes and recorded on a chart recorder. […] The mean chart deflection during each recording was taken as the measurement at that time point. The first reading was taken immediately after injection ("zero time") and subsequent measurements were converted to a percentage of this initial amount.
Individual radioactivity versus time data were recorded for each animal, and the mean values for each animal group (N=4-6) were calculated.
Each plot was used to calculate first order rate constants for EGF disappearance from the eye for each formulation by a non linear least squares fitting method (RSTRIP, MicroMath, Salt Lake City, Utah).
At =A0 * e ^-kt or 1n(At)=1n (A0)-kt
where k=0.693 / t1/2, the amount of EGF lost from the eye during any day can be calculated.

The conditions of series [2]: 37° C., 25% human plasma/saline, 0.08 μm filter.
Procedure: Liposome formulations were evaluated in vitro by release rates of 125 I-rh-EGF into the receiver compartments of percutaneous absorption cells that were continuously perfused with 25% pooled human plasma/saline.
A conventional two-chamber absorption cell, using a bath temperature of 37° C., was employed (Bronaugh). A 25 mm, 0.08 μm diameter Nuclepore (Pleasanton, Calif.) polycarbonate filter was used to separate the donor from the flow-through acceptor compartment. […] The ^125 I-rh-EGF preparation was mixed with an equal quantity of 25% pooled human plasma/isotonic saline and 200 μl aliquots were immediately applied to the donor compartments. Parafilm was used to occlude the donor compartment and prevent evaporative loss. The perfusate was collected by fraction collector into scintillation vials and mounted in a Packard TriCarg 20000. rh-EGF flux was calculated from the specific activity (DPM per μg peptide). Clearance rate half-lives were determined for individual percutaneous absorption cells as described below.
In this single phase system, it is possible to determine the concentration of peptide remaining in the donor compartment by subtracting cumulative peptide in the measured in the receiver compartment from total peptide applied to the donor compartment. […]
Where [3] appears, read: rabbit, subconjunctival injection.

Like-named read-outs stand apart in the source and are kept apart here.

Turning to `CC[C@H](C)[C@@H]1NC(=O)[C@H](Cc2ccc(O)cc2)NC(=O)CNC(=O)[C@H](C(C)C)NC(=O)[C@H](C(C)C)NC(=O)[C@@H](NC(=O)[C@H](CC(N)=O)NC(=O)[C@@H]2CSSC[C@@H]3NC(=O)[C@H](Cc4ccc(O)cc4)NC(=O)CNC(=O)[C@H](CC(=O)O)NC(=O)[C@H](Cc4c[nH]cn4)NC(=O)[C@H](CO)NC(=O)[C@H](CC(C)C)NC(=O)[C@@H]4CCCN4C(=O)[C@@H](NC(=O)[C@H](CCC(=O)O)NC(=O)[C@H](CO)NC(=O)[C@H](CC(=O)O)NC(=O)[C@H](CO)NC(=O)[C@@H](N)CC(N)=O)CSSC[C@H](NC(=O)[C@H](C(C)C)NC(=O)CNC(=O)[C@H](CC(=O)O)NC(=O)[C@H](Cc4c[nH]cn4)NC(=O)[C@H](CC(C)C)NC3=O)C(=O)N[C@@H](CCSC)C(=O)N[C@@H](Cc3ccc(O)cc3)C(=O)N[C@@H]([C@@H](C)CC)C(=O)N[C@@H](CCC(=O)O)C(=O)N[C@@H](C)C(=O)N[C@@H](CC(C)C)C(=O)N[C@@H](CC(=O)O)C(=O)N[C@@H](CCCCN)C(=O)N[C@@H](Cc3ccc(O)cc3)C(=O)N[C@@H](C)C(=O)N2)CSSC[C@@H](C(=O)N[C@@H](CCC(N)=O)C(=O)N[C@@H](Cc2ccc(O)cc2)C(=O)N[C@@H](CCCNC(=N)N)C(=O)N[C@@H](CC(=O)O)C(=O)N[C@@H](CC(C)C)C(=O)N[C@@H](CCCCN)C(=O)N[C@@H](Cc2c[nH]c3ccccc23)C(=O)N[C@@H](Cc2c[nH]c3ccccc23)C(=O)N[C@@H](CCC(=O)O)C(=O)N[C@@H](CC(C)C)C(=O)N[C@@H](CCCNC(=N)N)C(=O)O)NC(=O)[C@H](CCCNC(=N)N)NC(=O)[C@H](CCC(=O)O)NC(=O)CNC1=O` [Free EGF, Epidermal Growth Factor], the “% Lost (of total dose administered)” value is recorded as 100% in series [1] (Day 1, includes initial burst); 0% in series [1] (Day 2); 0% in series [1] (Day 3); 0% in series [1] (Day 4); 0% in series [1] (Day 5); 0% in series [1] (Day 6). The “% Lost (of total dose administered)” value in series [1] (Day 7) amounted to 0%. The “Dose remaining in the eye” value in series [1] (after 3 hours) was “Less than 15%”. Besides, the “EGF available at the conjunctival site” value in series [1] (one day after administration) is on record as “substantially no EGF was available”. For the same molecule, the “Half life of EGF retention in the eye” value in series [1] (setting [3]) was determined as 1 h; in series [1] (rabbit, subconjunctival injection, listed as unencapsulated EGF), 1.0 h. Also, the “Half-life of EGF disappearance from the eye” value in series [1] (setting [3]) is 1.0 h. The “Rate constant of EGF disappearance from the eye” value in series [1] (rabbit, subconjunctival, fit of loglinear portion after initial burst) came out at 0.69 h⁻¹. Further, the “Half-life of EGF release in vitro (slow phase for liposomes)” value in series [2] was “about 1.8 hours”.
